For orientation: Kd means the free concentration of one partner at which half of the binding sites on the other are occupied at equilibrium, for simple one-to-one binding.

Positions count from the first letter of the chain named.

The labels stand for the following.
B1: AC3402 (bispecific antibody, V domains shown)
VH: EVQLLESGGGIVQPGGSLKLSCAASGFTFNTYAMNWVRQAPGKGLEWVARIRSKPNNYATYYADSVKDRFTISRDDSKNTVYLQMNNLKTEDTAVYYCVRHENFGNSYVSWFAHWGQGTLVTVSS
VL: ELVVTQEPSLTVSPGGTVTLTCRSSNGAVTSSNYANWVQQKPGQAPRGLIGGTNKRAPGTPARFSGSLLGGKAALTLSGVQPEDEAVYYCALWYPNLWVFGGGTKLTVL
B2: AC3429 (bispecific antibody, V domains shown)
VH: B1 VH with P55Y, N87Q
VL: B1 VL
B3: AC3413 (bispecific antibody, V domains shown)
VH: B1 VH with P55Y, A59T
VL: B1 VL
B4: AC3433 (bispecific antibody, V domains shown)
VH: B1 VH with P55Y
VL: B1 VL with L69Q
B5: AC3424 (bispecific antibody, V domains shown)
VH: B1 VH with P55Y, D68G
VL: B1 VL
B6: AC3435 (bispecific antibody, V domains shown)
VH: B1 VH with P55Y
VL: B1 VL with L69D
B7: AC3407 (bispecific antibody, V domains shown)
VH: B1 VH with P55Y, N57D
VL: B1 VL
B8: AC3428 (bispecific antibody, V domains shown)
VH: B1 VH with P55Y, N87E
VL: B1 VL
B9: AC3434 (bispecific antibody, V domains shown)
VH: B1 VH with P55Y
VL: B1 VL with G70E
B10: AC3412 (bispecific antibody, V domains shown)
VH: B1 VH with P55Y, A59G
VL: B1 VL
B11: AC3431 (bispecific antibody, V domains shown)
VH: B1 VH with P55Y, N87Y
VL: B1 VL
B12: AC3414 (bispecific antibody, V domains shown)
VH: B1 VH with P55Y, Y61D
VL: B1 VL
B13: AC3417 (bispecific antibody, V domains shown)
VH: B1 VH with P55Y, Y62D
VL: B1 VL
B14: AC3403 (bispecific antibody, V domains shown)
VH: B1 VH with P55T
VL: B1 VL
B15: AC3406 (bispecific antibody, V domains shown)
VH: B1 VH with P55Y, N56E
VL: B1 VL
B16: AC3422 (bispecific antibody, V domains shown)
VH: B1 VH with P55Y, A63K
VL: B1 VL
B17: AC3427 (bispecific antibody, V domains shown)
VH: B1 VH with P55Y, Y82S
VL: B1 VL
B18: AC3415 (bispecific antibody, V domains shown)
VH: B1 VH with P55Y, Y61E
VL: B1 VL
B19: AC3409 (bispecific antibody, V domains shown)
VH: B1 VH with P55Y, Y58G
VL: B1 VL
B20: AC3418 (bispecific antibody, V domains shown)
VH: B1 VH with P55Y, Y62E
VL: B1 VL
B21: AC3426 (bispecific antibody, V domains shown)
VH: B1 VH with P55Y, Y82G
VL: B1 VL
B22: AC3411 (bispecific antibody, V domains shown)
VH: B1 VH with P55Y, Y58W
VL: B1 VL
B23: AC3420 (bispecific antibody, V domains shown)
VH: B1 VH with P55Y, Y62G
VL: B1 VL
B24: AC3430 (bispecific antibody, V domains shown)
VH: B1 VH with P55Y, N87S
VL: B1 VL
B25: AC3423 (bispecific antibody, V domains shown)
VH: B1 VH with P55Y, A63P
VL: B1 VL
B26: AC3416 (bispecific antibody, V domains shown)
VH: B1 VH with P55Y, Y61T
VL: B1 VL
B27: AC3410 (bispecific antibody, V domains shown)
VH: B1 VH with P55Y, Y58F
VL: B1 VL
B28: AC3421 (bispecific antibody, V domains shown)
VH: B1 VH with P55Y, Y62W
VL: B1 VL
B29: AC3408 (bispecific antibody, V domains shown)
VH: B1 VH with P55Y, N57E
VL: B1 VL
B30: AC3425 (bispecific antibody, V domains shown)
VH: B1 VH with P55Y, Y82D
VL: B1 VL
B31: AC3404 (bispecific antibody, V domains shown)
VH: B1 VH with P55W
VL: B1 VL
B32: AC3419 (bispecific antibody, V domains shown)
VH: B1 VH with P55Y, Y62Q
VL: B1 VL

The target of the assay is CD3. As to the kind of experiment: Octet, crude lysate. Background: Biolayer interferometry detects binding as a change in optical thickness at a sensor tip.
CD3, sequence (P07766 23-126): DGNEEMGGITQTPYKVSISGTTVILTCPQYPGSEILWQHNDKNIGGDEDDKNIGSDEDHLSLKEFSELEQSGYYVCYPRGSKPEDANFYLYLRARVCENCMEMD
B1: the Kd was 33.1 nM. Regarding B2, the Kd came to 7.1 nM. As for B3, the Kd was found to be 10.7 nM.

The molecule B4 returned a Kd of 4.6 nM. In turn, B5 registered a Kd of 5.4 nM. Next, B6: 6.1 nM.

B7 displayed a Kd of 7.4 nM. Molecule B8 gave a dissociation constant (Kd) of 5.9 nM. The molecule B9 gave a dissociation constant (Kd) of 4.9 nM. B10 showed a Kd of 8.2 nM. On to B11, for which the Kd was 5.2 nM. The molecule B12 came in with a Kd of 939 nM.

B13 showed a Kd of 63.2 nM.

Molecule B14 gave an equilibrium dissociation constant (Kd) of 11.1 nM. Molecule B15 registered a Kd of 575 nM. Turning to B16, the Kd is 8 nM.

Molecule B17 returned a Kd of 9.6 nM.

B18 yielded a Kd of 183 nM. Next, B19: 11.3 nM.

For B20, the Kd amounted to 9.7 nM. Molecule B21 registered a dissociation constant (Kd) of 121 nM. Next, B22: 7.8 nM. B23: the dissociation constant Kd turned out to be 8.3 nM. Take B24: the equilibrium dissociation constant (Kd) was found to be 4.8 nM. The molecule B25 had a dissociation constant (Kd) of 8.2 nM. The molecule B26 yielded a Kd of 17.9 nM.

Take B27: the dissociation constant Kd is 6.1 nM.

B28 came in with a Kd of 37.2 nM.

With B29, the Kd turned out to be 8.3 nM. Next, B30: 9.8 nM; B31: 10.5 nM; B32: 7.2 nM.
